pKd: −log10 of the molar value.
Legend:
[1] = molecular target: T1, IolR-His6 (Salmonella enterica serovar Typhimurium 14028) (UniProt Q8ZK65); assay: SPR (OneToTwo); settings: EMSA: 100 ng DNA in 1x Tris/borate/EDTA, 20 ul, 45 min, 12% native PAA gel run at 4 C; SPR: streptavidin chip, 30 ul/min, 25 C, 0-330 nM IolR, buffer not in …
T1 sequence: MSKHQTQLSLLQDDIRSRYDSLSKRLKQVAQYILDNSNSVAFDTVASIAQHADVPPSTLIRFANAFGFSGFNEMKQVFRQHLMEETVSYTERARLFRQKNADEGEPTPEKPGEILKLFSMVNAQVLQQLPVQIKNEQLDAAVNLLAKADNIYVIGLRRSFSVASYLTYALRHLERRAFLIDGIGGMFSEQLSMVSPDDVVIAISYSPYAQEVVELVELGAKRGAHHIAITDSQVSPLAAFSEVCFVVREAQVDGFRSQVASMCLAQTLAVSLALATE

[2] = test system: IolR-His6 (Salmonella enterica serovar Typhimurium 14028); assay: SPR (OneToTwo); settings: EMSA: 100 ng DNA in 1x Tris/borate/EDTA, 20 ul, 45 min, 12% native PAA gel run at 4 C, SPR: streptavidin chip, 30 ul/min, 25 C, 0-330 nM IolR, buffer not in …
[3] = test system: IolR-His6 (Salmonella enterica serovar Typhimurium 14028); assay: SPR (Interaction Map); settings: EMSA: 100 ng DNA in 1x Tris/borate/EDTA, 20 ul, 45 min, 12% native PAA gel run at 4 C, SPR: streptavidin chip, 30 ul/min, 25 C, 0-330 nM IolR, buffer not in …

GGTGTGTCATCAATGGTTGTCTGTTGTGACGAGGAAAGATTTGGAAAAAATTATGATCTATATAGCATTTTTGTTTCATTTGGTGTGGTATAAAAATTCAAATTTCAGGGGGGTTTCGGCACCACA (double strand) [PreiD SPR fragment]
pKd [1]: 6.49

PiolR SPR fragment
pKd ([2]; KD1, ka1 1.3e5 M-1s-1, kd1 5.5e-2 s-1): 6.37 | pKd ([2]; KD2, ka2 2.4e5 M-1s-1, kd2 1.4e-3 s-1): 8.22

PiolT1 SPR fragment
pKd ([3]; high-affinity component, peak weight 40.5%, ka 6.95e5 M-1s-1, kd 5.78e-4 s-1): 9.09 | pKd ([3]; low-affinity component, peak weight 57.6%, ka 1.05e5 M-1s-1, kd 3.2e-2 s-1): 6.51

PreiD SPR fragment
pKd ([2]; KD1, ka1 1.5e5 M-1s-1, kd1 4.9e-2 s-1): 6.49 | pKd ([2]; KD2, ka2 2.1e5 M-1s-1, kd2 1.4e-3 s-1): 8.18

TTGCTCAGAACCCAGCCCGCCAGCAAATTCTGTACTGAAGGTAACCACAGCGCAATTTGAATGTTGTTAACTGTATGTTCAGTTCATTTGTGCTAATATGGTTATTTACGAAATTTTCGTTCTATTAGAGTATCATGCATGTCTAAACATCAAACTCAACTTTCCTTACTGCAGGATGATATCCGCAG (double strand) [PiolR SPR fragment]
pKd [1]: 6.37

Source: paper PMC5349611
